For assay [1], the target named is NRSF (endogenous, JTC-19 rat lung fibroblasts) (rat) (UniProt O54963). Kind of assay: cell-based or functional assay.
Assay [2] deals with MYC-tagged NRSF protein. Kind of assay: co-immunoprecipitation (anti-KT3) of HEK cell protein incubated with 0-1000 nM NADH, anti-MYC Western blot; the varied concentration is that of NADH, not of a protein.
Chain of MYC-tagged NRSF protein (Q13127 whole entry): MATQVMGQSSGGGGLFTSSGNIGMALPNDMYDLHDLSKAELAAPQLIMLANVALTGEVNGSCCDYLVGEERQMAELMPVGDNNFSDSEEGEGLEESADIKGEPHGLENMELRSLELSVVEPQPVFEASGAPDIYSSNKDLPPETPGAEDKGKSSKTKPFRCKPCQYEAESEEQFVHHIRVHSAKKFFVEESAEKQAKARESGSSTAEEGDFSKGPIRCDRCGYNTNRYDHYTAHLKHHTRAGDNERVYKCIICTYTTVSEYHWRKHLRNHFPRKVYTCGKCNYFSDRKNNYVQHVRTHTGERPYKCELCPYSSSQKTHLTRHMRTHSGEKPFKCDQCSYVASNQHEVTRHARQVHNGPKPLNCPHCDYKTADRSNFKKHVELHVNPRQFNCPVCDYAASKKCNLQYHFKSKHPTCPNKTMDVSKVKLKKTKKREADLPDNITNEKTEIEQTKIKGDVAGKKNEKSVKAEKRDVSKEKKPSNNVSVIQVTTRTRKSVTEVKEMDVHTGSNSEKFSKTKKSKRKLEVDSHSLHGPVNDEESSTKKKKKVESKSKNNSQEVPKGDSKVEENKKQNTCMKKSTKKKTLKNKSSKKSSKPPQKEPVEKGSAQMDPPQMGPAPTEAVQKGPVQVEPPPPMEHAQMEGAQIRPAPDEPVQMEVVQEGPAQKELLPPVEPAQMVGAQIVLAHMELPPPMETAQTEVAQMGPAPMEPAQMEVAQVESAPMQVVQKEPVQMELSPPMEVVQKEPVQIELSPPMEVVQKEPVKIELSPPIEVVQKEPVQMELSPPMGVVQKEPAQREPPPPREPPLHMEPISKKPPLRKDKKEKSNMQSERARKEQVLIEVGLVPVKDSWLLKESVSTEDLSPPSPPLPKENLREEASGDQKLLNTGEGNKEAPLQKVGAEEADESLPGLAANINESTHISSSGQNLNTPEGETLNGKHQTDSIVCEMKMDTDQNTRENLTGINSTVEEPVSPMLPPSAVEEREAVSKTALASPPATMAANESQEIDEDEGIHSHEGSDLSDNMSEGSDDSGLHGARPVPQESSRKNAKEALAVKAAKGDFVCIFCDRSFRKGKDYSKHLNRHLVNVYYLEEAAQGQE

Chain of NRSF (endogenous, JTC-19 rat lung fibroblasts) (rat) (O54963 whole entry): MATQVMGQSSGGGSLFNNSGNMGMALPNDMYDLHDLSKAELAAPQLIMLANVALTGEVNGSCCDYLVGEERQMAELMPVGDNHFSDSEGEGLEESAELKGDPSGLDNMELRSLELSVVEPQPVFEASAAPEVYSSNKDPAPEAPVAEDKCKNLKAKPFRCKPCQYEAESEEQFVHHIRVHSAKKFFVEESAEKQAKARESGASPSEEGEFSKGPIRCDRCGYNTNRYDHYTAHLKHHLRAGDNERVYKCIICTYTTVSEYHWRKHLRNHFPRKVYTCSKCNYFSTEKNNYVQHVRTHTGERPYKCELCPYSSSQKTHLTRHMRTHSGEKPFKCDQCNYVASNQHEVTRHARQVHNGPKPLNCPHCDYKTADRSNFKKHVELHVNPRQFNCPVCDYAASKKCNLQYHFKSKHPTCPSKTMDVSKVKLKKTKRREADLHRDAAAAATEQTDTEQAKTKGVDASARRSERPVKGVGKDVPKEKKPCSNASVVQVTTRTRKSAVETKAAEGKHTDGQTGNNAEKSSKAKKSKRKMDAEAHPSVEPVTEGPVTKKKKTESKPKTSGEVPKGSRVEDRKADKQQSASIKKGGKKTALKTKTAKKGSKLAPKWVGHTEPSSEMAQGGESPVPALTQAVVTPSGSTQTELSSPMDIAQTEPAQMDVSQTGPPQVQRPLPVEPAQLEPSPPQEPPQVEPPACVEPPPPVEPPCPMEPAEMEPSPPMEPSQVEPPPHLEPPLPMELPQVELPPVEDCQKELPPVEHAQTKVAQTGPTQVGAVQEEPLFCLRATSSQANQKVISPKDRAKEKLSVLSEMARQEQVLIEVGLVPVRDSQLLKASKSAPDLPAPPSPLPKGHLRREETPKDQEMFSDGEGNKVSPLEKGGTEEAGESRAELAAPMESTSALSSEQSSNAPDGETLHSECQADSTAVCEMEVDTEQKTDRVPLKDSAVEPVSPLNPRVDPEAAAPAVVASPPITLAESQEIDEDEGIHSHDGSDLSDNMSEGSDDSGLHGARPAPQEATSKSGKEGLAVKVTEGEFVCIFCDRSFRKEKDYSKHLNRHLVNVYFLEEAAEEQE
Chain of KT3-tagged CtBP2 (P56546 whole entry): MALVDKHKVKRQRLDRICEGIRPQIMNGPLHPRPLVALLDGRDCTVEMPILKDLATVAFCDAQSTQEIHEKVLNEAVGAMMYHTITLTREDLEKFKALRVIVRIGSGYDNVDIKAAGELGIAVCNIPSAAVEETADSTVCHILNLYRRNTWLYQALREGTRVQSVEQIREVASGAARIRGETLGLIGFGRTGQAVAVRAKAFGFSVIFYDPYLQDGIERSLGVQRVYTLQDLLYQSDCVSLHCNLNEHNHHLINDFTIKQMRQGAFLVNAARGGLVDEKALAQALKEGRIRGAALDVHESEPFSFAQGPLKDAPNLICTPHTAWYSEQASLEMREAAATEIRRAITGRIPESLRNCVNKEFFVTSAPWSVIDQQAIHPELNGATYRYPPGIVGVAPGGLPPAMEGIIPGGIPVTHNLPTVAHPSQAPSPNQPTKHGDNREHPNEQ

In assay [1], “CtBP (endogenous, JTC-19 rat lung fibroblasts) (from UniProt F7FG31 1-441)” displayed an amount of CtBP recruited to CHRM4, the NRSF target gene (ChIP, JTC-19 cells grown with 2-DG or glucose) of 5 fold. Turning to KT3-tagged CtBP2, in assay [2], the NADH concentration at half maximal binding of CtBP to NRSF was 70 nM.
